According to PMC10786919, “Design-rules for stapled peptides with in vivo activity and their application to Mdm2/X antagonists” (Nature Communications, 2024):
Positions of bridges follow the written chain, without caps; N, C: chain ends. Non-standard residues stand in square brackets, D forms with d. Primed or numbered codes have the meaning given here. Trp(6-Cl) = N[C@@H](Cc1c[nH]c2cc(Cl)ccc12)C(=O)O; Lys(N3) = [N-]=[N+]=NCCCC[C@H](N)C(=O)O; R8 = C=CCCCCCC[C@@](C)(N)C(=O)O; S5 = C=CCCC[C@](C)(N)C(=O)O; Cba′ = not defined here; Aib = CC(C)(N)C(=O)O; βAla = NCCC(=O)O

target: T1, human Mdm2 1-125 (human); assay: fluorescence polarisation; competitive fluorescence anisotropy: unlabelled peptide titrated against 250 nM Mdm2 (1-125) with 50 nM FAM-labelled 12/1 peptide (FAM-…-NH2); PBS pH 7.4, 0.001% Tween-20; apparent Kd, geometric means; conditions: both partners purified
T1 construct: Mdm2, human, residues 1-125; the stretch after the TEV site ENLYFQG of the fusion protein; source: E. coli BL21 (DE3) Rosetta T1R, purified (Ni-NTA, gel filtration)
T1 sequence (chain, as listed by the source): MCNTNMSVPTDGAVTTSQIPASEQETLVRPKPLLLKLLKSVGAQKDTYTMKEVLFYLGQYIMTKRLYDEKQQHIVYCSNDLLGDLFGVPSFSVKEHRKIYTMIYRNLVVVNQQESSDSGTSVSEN

Binder	Kd [nM]
Ac-[Lys(N3)][βAla]LTF[R8]EYWAE[Cba′][S5]SAA-NH2 (staple 6-13; reading uncertain) [AZIDE-ATSP-7041 (Q9E)]	34.6
Ac-[Lys(N3)][βAla]LHF[R8]EYWAQ[Cba′][S5]SAA-NH2 (staple 6-13; reading uncertain) [AZIDE-ATSP-7041 (T2H)]	64.2
Ac-[Lys(N3)][βAla]LTE[R8]EYWAQ[Cba′][S5]SAA-NH2 (staple 6-13; reading uncertain) [AZIDE-ATSP-7041 (F3E)]	11200
Ac-[Lys(N3)][βAla]LTF[R8]EYWAH[Cba′][S5]SAA-NH2 (staple 6-13; reading uncertain) [AZIDE-ATSP-7041 (Q9H)]	9.6
Ac-[Lys(N3)][βAla]LTF[R8]EEWAQ[Cba′][S5]SAA-NH2 (staple 6-13; reading uncertain) [AZIDE-ATSP-7041 (Y6E)]	5.1
Ac-[Lys(N3)][βAla]LTF[R8]EYWAQ[Cba′][S5]HAA-NH2 (staple 6-13; reading uncertain) [AZIDE-ATSP-7041 (S12H)]	4.5
Ac-[Lys(N3)][βAla]LTF[R8]EYWAQE[S5]SAA-NH2 (staple 6-13) [AZIDE-ATSP-7041 (CBA10E)]	312
Ac-[Lys(N3)][βAla]HTF[R8]EYWAQ[Cba′][S5]SAA-NH2 (staple 6-13; reading uncertain) [AZIDE-ATSP-7041 (L1H)]	0.7
Ac-[Lys(N3)][βAla]LEF[R8]EYWAQ[Cba′][S5]SAA-NH2 (staple 6-13; reading uncertain) [AZIDE-ATSP-7041 (T2E)]	42.4
Ac-[Lys(N3)][βAla]LTF[R8]HYWAQ[Cba′][S5]SAA-NH2 (staple 6-13; reading uncertain) [AZIDE-ATSP-7041 (E5H)]	21.1
Ac-[Lys(N3)][βAla]LTF[R8]EYWEQ[Cba′][S5]SAA-NH2 (staple 6-13; reading uncertain) [AZIDE-ATSP-7041 (A8E)]	3.2
Ac-[Lys(N3)][βAla]LTF[R8]EYEAQ[Cba′][S5]SAA-NH2 (staple 6-13; reading uncertain) [AZIDE-ATSP-7041 (W7E)]	> 101000
Ac-[Lys(N3)][βAla]LTF[R8]EYWAQ[Cba′][S5]S[Aib]A-NH2 (staple 6-13; reading uncertain) [AZIDE-ATSP-7041 (A13 TO AIB)]	15.2

target: T1, human Mdm2 1-125; assay: as above; conditions: both partners purified; remark: another data set of the same source

Binder	Kd [nM]
Ac-[Lys(N3)][βAla]VTF[R8]VYWVQ[Cba′][S5]SAA-NH2 (staple 6-13; reading uncertain) [AZIDE-ATSP-7041 (L1V, E5V, A8V)]	122
Ac-[Lys(N3)][βAla][dL]TF[R8]AY[Trp(6-Cl)]AA[Cba′][S5]S[dA]A-NH2 (staple 6-13; reading uncertain) [AZIDE-ATSP-7041 (L1 TO D-LEU, E5A, Q9A, W7 TO 6-CLTRP, A13 TO D-ALA)]	16.9

target: T1, human Mdm2 1-125; assay: as above; conditions: both partners purified; remark: another data set of the same source

Binder	Kd [nM]
Ac-[Lys(N3)][βAla]LTF[R8]EYWAQ[Cba′][S5]RAA-NH2 (staple 6-13; reading uncertain) [AZIDE-ATSP-7041 (S12R)]	78.7
KXLTFXEYWAQXXXAA (homo-Arg (hR) at 12; N-terminal acetyl; Lys(N3) and beta-Ala before residue 1; R8 at 4 and S5 at 11 (olefin staple); Cba at 10; C-terminal amide) [AZIDE-ATSP-7041 (S12hR)]	5
KXLTFXXYWAQXXSAA (homo-Arg (hR) at 5; N-terminal acetyl; Lys(N3) and beta-Ala before residue 1; R8 at 4 and S5 at 11 (olefin staple); Cba at 10; C-terminal amide) [AZIDE-ATSP-7041 (E5hR)]	35.5
Ac-[Lys(N3)][βAla]LTF[R8]EYWRQ[Cba′][S5]SAA-NH2 (staple 6-13; reading uncertain) [AZIDE-ATSP-7041 (A8R)]	69.4
KXLTFXEYWAQXXSXA (homo-Arg (hR) at 13; N-terminal acetyl; Lys(N3) and beta-Ala before residue 1; R8 at 4 and S5 at 11 (olefin staple); Cba at 10; C-terminal amide) [AZIDE-ATSP-7041 (A13hR)]	42.5
KXLTFXEYWAQXXSAX (homo-Arg (hR) at 14; N-terminal acetyl; Lys(N3) and beta-Ala before residue 1; R8 at 4 and S5 at 11 (olefin staple); Cba at 10; C-terminal amide) [AZIDE-ATSP-7041 (A14hR)]	8.6
Ac-[Lys(N3)][βAla]LTF[R8]EYWAR[Cba′][S5]SAA-NH2 (staple 6-13; reading uncertain) [AZIDE-ATSP-7041 (Q9R)]	45.9
KXXTFXEYWAQXXSAA (homo-Arg (hR) at 1; N-terminal acetyl; Lys(N3) and beta-Ala before residue 1; R8 at 4 and S5 at 11 (olefin staple); Cba at 10; C-terminal amide) [AZIDE-ATSP-7041 (L1hR)]	8.6
KXLXFXEYWAQXXSAA (homo-Arg (hR) at 2; N-terminal acetyl; Lys(N3) and beta-Ala before residue 1; R8 at 4 and S5 at 11 (olefin staple); Cba at 10; C-terminal amide) [AZIDE-ATSP-7041 (T2hR)]	2.8
KXLTFXEYWAXXXSAA (homo-Arg (hR) at 9; N-terminal acetyl; Lys(N3) and beta-Ala before residue 1; R8 at 4 and S5 at 11 (olefin staple); Cba at 10; C-terminal amide) [AZIDE-ATSP-7041 (Q9hR)]	28.5
Ac-[Lys(N3)][βAla]LTF[R8]RYWAQ[Cba′][S5]SAA-NH2 (staple 6-13; reading uncertain) [AZIDE-ATSP-7041 (E5R)]	33
Ac-[Lys(N3)][βAla]RTF[R8]EYWAQ[Cba′][S5]SAA-NH2 (staple 6-13; reading uncertain) [AZIDE-ATSP-7041 (L1R)]	62.9
Ac-[Lys(N3)][βAla]LRF[R8]EYWAQ[Cba′][S5]SAA-NH2 (staple 6-13; reading uncertain) [AZIDE-ATSP-7041 (T2R)]	30.6

target: T1, human Mdm2 1-125; assay: as above; conditions: both partners purified; remark: another data set of the same source

Binder	Kd [nM]
Ac-[Lys(N3)][βAla]LTF[R8]EYWAQ[Cba′][S5]KAA-NH2 (staple 6-13; reading uncertain) [AZIDE-ATSP-7041 (S12K)]	39.7
Ac-[Lys(N3)][βAla]ATF[R8]EYWAQ[Cba′][S5]SAA-NH2 (staple 6-13; reading uncertain) [AZIDE-ATSP-7041 (L1A)]	10.7
Ac-[Lys(N3)][βAla]LTF[R8]EYWKQ[Cba′][S5]SAA-NH2 (staple 6-13; reading uncertain) [AZIDE-ATSP-7041 (A8K)]	11.1
Ac-[Lys(N3)][βAla]LKF[R8]EYWAQ[Cba′][S5]SAA-NH2 (staple 6-13; reading uncertain) [AZIDE-ATSP-7041 (T2K)]	5.4
Ac-[Lys(N3)][βAla]KTF[R8]EYWAQ[Cba′][S5]SAA-NH2 (staple 6-13; reading uncertain) [AZIDE-ATSP-7041 (L1K)]	3.8
Ac-[Lys(N3)][βAla]LTF[R8]KYWAQ[Cba′][S5]SAA-NH2 (staple 6-13; reading uncertain) [AZIDE-ATSP-7041 (E5K)]	115
Ac-[Lys(N3)][βAla]LTA[R8]EYWAQ[Cba′][S5]SAA-NH2 (staple 6-13; reading uncertain) [AZIDE-ATSP-7041 (F3A)]	13200
Ac-[Lys(N3)][βAla]LAF[R8]EYWAQ[Cba′][S5]SAA-NH2 (staple 6-13; reading uncertain) [AZIDE-ATSP-7041 (T2A)]	80.5
Ac-[Lys(N3)][βAla]LTF[R8]EYWAK[Cba′][S5]SAA-NH2 (staple 6-13; reading uncertain) [AZIDE-ATSP-7041 (Q9K)]	8.2
